Laboratory results: patent US20230242902A1, “A HIGHLY ERROR-PRONE […] R[…] FOR TARGETED CONTINUOUS EVOLUTION IN VIVO” (The Regents of the University of California, priority 2017, published 2023)
Where a chain is given by its changes, count along the chain named. Names may count otherwise.

B1: S370P: TP-DNAP2 variant (protein, listed as Kluyveromyces lactis)
chain: MNDELAFLNSQIDDYSDDIEFLRTEVFRINRYSKSIYSLMKNSSKEAIKETIEFNKYGQEIHSKIKEKEISLIEAIKLMEKKYKYLRSLNKTKDKSKKKKIHTKDIETLKTIYKTKADFDIRNFKNAETFTYENYSLLIPSEKELIDLIPEIEEDYSYYFYVSLTITGPTIFGGVTRKVPIIDTYGDINKDFYNKIKENITKVLDRVPFYEEKESEIICKKVLITLTVNKWESIDKWYKNVKSKSKKFKDFTLFLASDTSKNCVQQCVEYLGGKWNTNYSLEKMIPQQKIVTYIPLLMDIQYVQSMEDLISDFDEPNTDCKNIARLLKWNGHMGVITKIDKDVKINRIQRKRIIDVENKEVKEVFFDIEPFSDETKHQIPYLICWSYLGELYYRTGKNCIKEFVEEILSYNVDIILYAWYGSGYDYQHVLPYMKSKCIKDKYIIKNNMITYGELYYENAIIYLKDPYLFILTSLDKASKAFNVINKGEFPHSIIHSWEDLNKILPNWVKIQKRMIEYKDDNKLNIYYKNIEIFENDRNYNTILENAIEYCKVDVLAMEKVWIKFKKLLEKNLNITVSVKTFTLSQLSMKIMESKLPKYVKLYVPTLEEYSKIRNAIYGGRVISKNGIYEENIVYADVVSLYPSAMKLLKHSYGKPKLVDYIDFEKHGIYRVTLLNKHDQEPKNYLNFVPRRINRKLTWEWFKIHEGWYHTYDLIIAKSEGFDIYCHEGFEYPEKDYIFNDFIDTLYSMKETHTACSCEEQPCPIRMVAKIALNGGGYGKFVQKPIDKEIYIVKRDVVAGECDKLQENENGEICIGKRLVKRPLFYNLDSENYDKMIIEKEDEPIYSTQCGISILSASRYRLYKLCKQFENIDIIYSDTDSIFVKQKSVDWELFKSKCGSELGQLDSTIDDTKNAIISKMYIGGAKMYAFEYLNNKNKLITKLHCKGVPNYMLSLNQFKYLMESPDNTIAYKFEIIRRKLVNVITKDLIKDIKQT
B2: S370R: TP-DNAP2 variant (protein, listed as Kluyveromyces lactis)
chain: B1 chain with P370R
B3: S370L: TP-DNAP2 variant (protein, listed as Kluyveromyces lactis)
chain: B1 chain with P370L
B4: Y424E: TP-DNAP2 variant (protein, listed as Kluyveromyces lactis)
chain: B1 chain with P370S, Y424E
B5: S370E: TP-DNAP2 variant (protein, listed as Kluyveromyces lactis)
chain: B1 chain with P370E
B6: S370K: TP-DNAP2 variant (protein, listed as Kluyveromyces lactis)
chain: B1 chain with P370K
B7: L474D: TP-DNAP2 variant (protein)
chain: MDYKDKALNDLRNVYADFDSLPLDFRQILIKDRATLLQKEDVEKKILERQEDAKKYAEYLKQSEIPERISLPNIKRHKGVSISFEETSEDMVLEPRPFIFDGLNIRCFRRETIFSLKNKILNMVKESSSFKNVSRQSVSFMYFKIFNKGKVIASTKSVNIYEDKIDERLEDLCNNFDDVLKKIIDVTYGYESLFVSETYSYVIFYAKSIYFPQPRCVNNWGNNIPNILTFDSFKLFTANKNNVSCIKQCSRFLWQKDFNTLEEMIEYKNGNICIVTPQLHINDVRDIKSFNDIRLYSESPIKTFSVIDNTITYLFYFKEHLGVIFNITKSRHDRRVTKFSPLSKFSDVKNITVCFDIESYFDPEKESNQVNIPFICCASIIYNKVIGNIVDFEGRDCVAQMIEYVVDICGELNISSVELIAHNGGGYDFHYILSSMYNPAAIKNILIRNNSFISFNFAHDGVKFSVKDSYSFLDCSLANASKAFLNEETFKKTDFPHHDLKTADDLYKVYKEWSSVNTEINHVVEKEKLLITSEHIVNFTKNDKSKTLIEWSKDYCRNDVLVLSKVWLEFKNAVEDIFNCELVDQTMTLAGLSYKLFQANMPFDVELRHPNKEDYFNMREALIGGRCISVNGIYKDVLCLDVKSLYPASMAFYDQPYGSFKRVSSRPKDELGIYYVRVTPNRNNKSNFFPIRSHNKITYNNFEESTYIAWYTNVDIDIGLSEGHNIEYIPFDSYGNIGYSWSKKGKIFEKYIKDVLYKLKIKYEKQNNKVKRNVIKIIMNSLWGKFAQKWVNFEYFIKSEDDIDFESEEAYKIWDTDFMLIKKIKESTYSSKPIQNGVFTLSWARYHMKSIWDAGAKEGAECIYSDTDSIFVHKEHFKKNAKFMLNGLKVPIIGSEVGQLELECEFDKLLCAGKKQYMGFYTYFQDGKPCIKEKKRFKGIPSNYIIPELYAHLLSGADKEAKIQFLKFRREWGSVKGYIENKTVKAT
B8: L474A: TP-DNAP2 variant (protein)
chain: B7 chain with D474A
B9: L474V: TP-DNAP2 variant (protein)
chain: B7 chain with D474V

test system: p2-encoded leu2*; assay: p2 leu2* fluctuation tests in GA-Y021 (p2 mutation rate reporter strain); type: cell-based, S. cerevisiae; conditions: TP-DNAP2 variant in trans, wt TP-DNAP2 in cis, 36 replicates, (95% C.I.)
Source text: For fluctuation tests used to measure p2 mutation rates, leu2* served as a marker for detecting mutational events. leu2* is a disabled version of LEU2, where Q180 is replaced with a TAA stop codon. Q180 is a permissive site where mutation to any other codon other than TAG and TGA results in functional reversion to LEU2. These mutational events can be detected by plating scores of parallel cultures on medium lacking leucine and counting the number distribution of functional LEU2 mutants.
For TP-DNAP2 library screening, each library member was subjected to small-scale leu2* fluctuation tests with six replicates. 190 library members from each yeast library transformation were arrayed and inoculated into liquid SC medium lacking uracil and histidine, and passaged three times at 1:10,000 dilutions. mKate2 fluorescence was measured at every passage on a microplate reader (TECAN Infinite® 200 PRO, settings: λex=588, λem=633) to track p2 copy number stabilization. To perform fluctuation tests, each library member was diluted 1:10,000 into liquid SC medium buffered to pH 5.8 and lacking uracil, histidine, tryptophan, and dilutions were split into six 100 μL replicates. Cultures were grown for 48 hours at 30° C. to reach saturation. Saturated cultures were washed with 200 μL 0.9% NaCl to remove residual leucine and resuspended in 35 μL of 0.9% NaCl. 10 μL of this resuspension was spot plated onto solid SC medium buffered to pH 5.8 and lacking uracil, histidine, tryptophan and leucine. Spot plates were allowed to dry and incubated at 30° C. Colonies were counted after 5 days. Colony counts were used to calculate the expected number of LEU2 functional mutants (m), using the p0 method (Foster, 2006, Methods Enzymol, 409:195-213).
To precisely measure p1 and p2 per-base substitution mutation rates, several modifications were made to the small-scale protocol. First, 36 replicates were performed for reconfirmation of candidate TP-DNAP2 mutators, and 48 replicates for genomic and mutual orthogonality experiments. Titers were also determined for each strain after spot plating by pooling the residual volume from 4 replicates and plating dilutions on YPD. The expected number of LEU2 functional mutants (m) was determined by the Ma-Sandri-Sarkar maximum likelihood estimator (as calculated by the FALCOR tool and corrected for partial plating (Foster, 2006, Methods Enzymol, 409:195-213; Sarkar et al., 1992, Genetica, 85:173-179; Hall et al., 2009, Bioinformatics, 25:1564-1565). The mean mKate2 fluorescence was determined from 50,000 event counts on Attune™ NxT Flow Cytometer and converted to p2 copy number by using a calibration curve. To determine per-base substitution rates, the corrected m was normalized to the average cell titer, the p2 copy number, and the target size for functional leu2* reversion (2.33 bp). 95% confidence intervals were similarly scaled.
To identify error-prone TP-DNAP2s, a small library of TP-DNAP2s diversified at locations hypothesized to be responsible for DNAP fidelity was screened. […] Four distinct site-saturation mutagenesis libraries were generated, each diversifying S370, Y424, L474, or F882 in TP-DNAP2 encoded on pGA55-reTP-DNAP2. Due to unsuccessful attempts to generate a strain with a full deletion of p2-encoded TP-DNAP2 and simultaneous integration of mKate, URA3, and leu2*, each library was transformed into GA-Y021 for convenient screening. However, since GA-Y021 still encodes wt TP-DNAP2 on p2-delORF1-mUL*, p2 mutation rates measured in this format are the result of in tandem replication of p2 by wt TP-DNAP2 and each TP-DNAP2 variant encoded in trans. 6-fold coverage of each library was maintained by picking 190 yeast colonies and passaging under selection for URA3 to stabilize the copy number of p2-delORF1-mUL* in the presence of the newly introduced TP-DNAP2 variants. […]

Molecule	Per-base substitution rate pf p2
B1	50.1 (32.4-70.4) ×10^−10
B2	31.9 (22.4-42.5) ×10^−10
B3	14.8 (9.32-21.1) ×10^−10
B4	73.3 (55.2-93.3) ×10^−10
B5	27.9 (19.7-37.2) ×10^−10
B6	26.2 (18.0-35.4) ×10^−10
B7	12.2 (7.33-17.9) ×10^−10
B8	8.37 (4.80-12.6) ×10^−10
B9	5.76 (2.88-9.33) ×10^−10

same assay, conditions: p2 substitution rate over no variant in trans

Molecule	Fold increase
B1	8.4
B2	5.3
B3	2.5
B4	12.3
B5	4.7
B6	4.4
B7	2.0
B8	1.4
B9	1.0
